Test results: the nanobody polyreactivity screen of Harvey et al. (2022)

Experiment: yeast display, Sf9 membrane polyspecificity reagent, FACS + sequencing; frameworks hold sequencing errors
Method in brief: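 Sorting gates, low and high (top ~1%), were placed on anti-HA fluorescence to track expression and on streptavidin fluorescence to track reagent binding. A clone's polyreactivity label is taken from the gate it came out of. The reagent was 10% biotinylated, detergent-solubilized Sf9 membrane, applied for 1 hour at 4 °C to galactose-induced yeast display cells.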

Sequence	polyreactivity (PSR sort gate)
QVQLVESGGGLVQAGGSLRLSCAASGRIFGGYTMGWYRQAPGKERELVAAITGSGGRTYYADSVKGRFTISRDKAKNTVYLQMNSLKPDETAVYYCNTVYRYRYYWGQGTQVTVSS	high polyreactivity
QVQLVESGGGLVQAGGSLRLSSAASGFTFRGYGMGWYRQAPAKERELVAAITSSGGSTYYADSVKGRFTISRDNAKNTVYLQMNSLKPEDTAVYYCAADRYTRYRYNYWGQGTQVTVSS	high polyreactivity
QVQLVESGGGLVQAGGSLRLSCAASGITFKRYAMGWYRQAPGKERELVAAITWRGARTYYADSVKGRFTISRDNAKNTVYLQMNSLKPEDTAVYYCAADGYSGSGPYDYWGQGTQVTVSS	high polyreactivity
QVQLVESGGGLFQAGGSLRISCAASGFIFSFYAMGWYRQAPGKERELVAAITSSGATTYYADSVKGSFTISRDNAKNTVYLQMNSLKPEDTAVYYCNAVYRRDTGYYRYYYWGQGTQVTVSS	high polyreactivity
QVQLVESGGGLVQAGGSLRLSCGASGSTFVAYDMGWYRQGPGKERELVAAISWSDATTYYADSVKGRFTISRDNAKNTVYLLMNSLNPEDTAVYYCAATRDTNNMDYWGQGTQVTVSS	low polyreactivity
QVQLVESGGGLVQAGGSLRLSCAASGNIFVWYDMGWYREAPGKERELVATITSSGGSTYYADSVKGRFTISRDNAKNTVYLQMNSLKPEDTAVYYCNALPYYRDDYWGQGTQVTVSS	low polyreactivity
QVQLVESGGGLVQAGGSLRLSCAASGHTFRGYDMGWYRQATGKQRELFASISSSGGSTYYADSVKGRFTISRDNAKNTVYLQMNSLKPEDTAVYYCATRDGVVDTEPDQSYAVELDYWGQGTQVTVSS	low polyreactivity
QVQLVESGGGLVQAGGSLRLSCAASGYTFSHYAMGWYRQAPGTERELVAGITWSGGSTYYADSVKGRFTISRDNAKNTVYLQMNSLKPEDTSVYYCAAKYYWYYSYSGIPLFDYWGQGTQVTVSS	low polyreactivity
QDQLVESGGGLVQAGGSLRLSCAASGSIFTKYAMGLYRQAPGKEREFVAAIDVNGGSTRYADSVKGRFTISRDYANNTVYLQMYSLKPEDTAVYYCAKDYTASYYPQGLYDYWGQGTQVTVSS	low polyreactivity
QVQLVDSGGGLVQAGGTLRLSCAASGSTFRYYAMGWYRQAPGKERELVAAISWNGGRTYYADSVKGRFTISRDNAKNTVYLQMNSLKPEDSAVYYCDAVHYVAYYGYDFWGQGTQVTVSS	high polyreactivity
QVQLVESGGGLVQAGGSLRLSCAASGITFDNYAMGWYIQAPGKERELVAAITSGDGTYYADSVKWRFTISRDNAKITVYLQMNSLKPEDTAVYACAVQGSRTENYDWYYYGGQGTQVTVSS	low polyreactivity
QVQLVESGGGLVQAGGSLRLSCAASGRTFQLYAMGWYRQAPGKERDLVAAISARGGSTYYADSVKGRFTISRDNAKNTVYLQMNSLKPEDTAVYYCNADYNVVLSRVIYARGYWGQGTQVTVSS	high polyreactivity
QVQLVESGGGLVQAGGSLRLSCAASGSIFLLNAMGWYRQAPGKERELVARIRINGGSTYYADSVKGRFTISRDNAKNTVYLKMNSLKPEDTAVYYCAADDTGPYSNWYDYWGQGTQVTVSS	low polyreactivity
QVHLVESGGGLVQAGGSLRLSCASSGSIFGPYVMGWYRQAPRKERELVAAITWNGGSTNYADSLKGRFTISRDNAKNTVYLQMNSLKPEETAVYYCNTVSWPLSSKYYYWGQGTQVSVSS	high polyreactivity
QVQLVESGGGLVQAGGSLRLSCAASGFIFNYYAMGWYIQAPGKERELVAAISTNGGSTYYADSVKGRFTISRDNAKNTVYLQMNSLKPEDTAVYYCAARSYGVSGRYYRYTFGMDYWGQGTQVTVSS	high polyreactivity
QVQLVESGGGLVQAGGSLRLSCAASGRTFRSNVMGWYRPAPGNERELVASITWSGGTTYYADSVKGRFTISRDNAKNTVYLQMNSLKPEDTAVYYCNAADERSQGWVGYDNWGQCTQVTVSS	low polyreactivity
QVQLVESGGGLVQAGGSLRLSCAASGFIFWVNAMGWYRKAPGKERELVAAISSSYGSTYYADYVKGRFSISRDNAKNTVYLQMNRLKPEDTAVCYSAARWLGHFYPFFLQGLSGFDYWGQGTHVTVSS	low polyreactivity
QVQLVESGGGLVQAGGSLRLSCAASGSIFRGYAMGWYRQAPGRERELVAAISRSGGSTYYADSVKGRFTISRDNAKNTVYLQMNSLKPEDTAVYYCAALLRGRYRMYYWGQGTQVTVSS	high polyreactivity
QVQLVESGGGLVQAGGSLRLSCAASGSTFRYYAMGWYRQAPGKERELVARISWRGGSTYYADSVKGRFTISRDNAKNTVYLQMNRLKPEDTAVYYCAAVRWVRYRTSAYEYWGQGTLVTVSS	high polyreactivity
QVQLVESGGGLVQAGGSLRLSCAASGFTFGYNDMGWYRQATGKVRELVAGIRSGDDTNYADSVKGRFTISRDNAKNTVYLQMNSLKPEDTAVYYCAVGYGDYLYYDYDYWGQGTQVTVSS	low polyreactivity
QVKLVESGGGLVQAGGSLRLSCAAYGFIISYYAMGWYRQQPGKEREFVAVISRGGNTYYADSVKGRFTISRDNAKNTVYLQMNSLKPVDTAVYYCAASVPPYYPRQRHDGYDYWVQGTQVTVSS	low polyreactivity
QVQLVESGGGLVQAGGSLRLSCAASGLTFPSYAMGWSRQAPGKERELVAAISRRSGSTYYADSVKGRFTICGDNAKYTVYLQMISLKPEDTAVYYCTTRRGERGYWGQGTQVTVSS	high polyreactivity

Sequence	polyreactivity (PSR sort gate)
QVQLVESGGGLVQPGGSLRLSCAASGSIFIVYAMGWYRQAPGQERELVAGISVRTGSTYYADSVKGRFTISRDNAKNTGYLQMNSLKPEDTAVYYCAAPGYTGLGRNYWGQGTQVTVSS	low polyreactivity
QVQLVESGGGLVQAGGSLRLSCAASGSTFSFYDMGWYRQAPGKETELVDAITGSGGTTYYADSVKGRFTISRDNAKNTVYLKMNSLIPEDTAVYFCAADSLESYPDYEYDYWGQGTQVTVSS	low polyreactivity
QVQLQESGGGLVQAGGSLRLSCAASGSIAHYIFMGWYRQAPGKEREFVAGIGYGGTTNYADSVKGRFTISRDNAKNTVYLQMNSLKPEDTAMYYCAAREATEFYLYYWGQGTQVTVSS	low polyreactivity
QVQLVESGGGLVQAGGSLRLSCAASGFIFSRYVMGWYRQAPGKEREFVAAISSSGGSTYYADSVKGRFTISRDNAKNTVYLQMNSLKPEDTAVYYCATRLGRYYRVGFDYWGQGNQVTVSS	high polyreactivity
QVQLVESGGGLVQAGGSLRLSCAASGRIFRFYVMGWYRQAPGKERELVAAISDSSPSTYYADSVKGRFTISRDNAKKTVYLQMNSLKPEDTAVYYCAARYPPYWSYDYDYWGQGTQVTVSS	low polyreactivity
QVQLVESGGGLVQAGGSLRLICAASGSIFRSYAMGWYRQAPGKERELVAPIDRSGGSTYYADSVKGRLTISRDYAKNTVYCQLNSLKPEDTAVYNSNKTPHFPRPGFNYWGLGTQVTVSS	low polyreactivity
QVQLVESGGGLVQAGGSLSLSCAASGRTFSSYVMGWYRPAPGNERELVAAITQSSSRTYYADSVKGRFTISRDNAKNTVYLQMNSLKRVYTAVYYCNAALYPYLQYYYWGLGTQVTVSS	low polyreactivity
QVQLVESGGGLVQAGGSLRLSCAASGFIFGRYAMGWYRQAPGKETELVAAISVSGGSTYYADSVKGRFTISRDNAKNTVYLQMNSLKPEDTAVYYCNVARWVSVSRSYGGNYWGQGTQVTVSS	high polyreactivity
QVQLVESGGGLVQAGGSLRLSCAASGFTFNWNDMGWYRQAPGKERELVAAISGGASTYYADSVKGRFTISRDNAKNTVYLQMNSLKPEDTAVYYCAADLDEWGYLFVYWGQGTQVTGSS	low polyreactivity
QVQLVESGGGVLQAGGSLRLSCAASGSTFAFYAMVRYREAPGKVRELVAAISRSGGRTYYADSVKGRFTISRDNAKNTVYLQMNSLIPEDTAVYYCAAPSGITTGPHREYDYWGLGTQVTVSS	high polyreactivity
QVQLVESGGGLVQAGGSLRLSCAASGNIFYPNAMGWYRQAPWKERELVARISWRGVSTYYADSVKGRFTISRDNAKNNVYLQMNSLKPEDTEVYYCNVRPYYGRTRIKYDYWGQGTQVTVSS	high polyreactivity
QVQLVESGGGLVQAGGSLRLSCDASGITFGYYAMGWYRQAPGKERELVAAISNSGRTYYADSVKGRFTISRDNAKNSVYLQMNSLKPEDTAVYYCAADDAYYDFYFWGQGTQVTVSS	low polyreactivity
QVQLVESGGGLVQAGGSLRLSCAASGRTFGQNAMGWYRQAPGKERELVAAISSGGSTYYADSVKGRFTISRDNAKNTVYLQMNSLKPEDTAVYYCAVSSWDRGYWYYYWGQGTQVTVSS	high polyreactivity
QVQLVESWGGLVQAGGSLRLSCAASGITLGYYSMGWYRQAPGKERELVAGISSSGDSTYYADSVKGRFTISRDNAKNSVYLQIKSLKPEDTAVYYCIADGWYFEYWGQGTQVTVSS	low polyreactivity
QDQLVESGGGLVQAGGSLRLSCAASGRTFTFNTMGWYRQAPGKERELVAAIVGDGTTNYADSVKGRFTISRDNAKNTVYLQMYSLKPEDTAVYYCAADFLYSFWYEPTFDYWGQGTQVTVSS	low polyreactivity
QVQLQECGGALVQAGGSLRLSCAASGTFSNSEKWLYCQAPGKERELVSTIGVGGSTNYADSVKGRFTISRDNAKNTVYLQLNSLKPEDTAVYHCAAYGAASYFHYYRGQGTQVTVSS	low polyreactivity
QVQLVESGGGLVQAGGSLRLSCAASGINFSEYAMGWSRQAPGKERELVAVITSGGSTYYADSVKGRFTISRDNAKNTVYLQMNSLKPEDTAVYYCAARTAYASRYVNVPYYYWGQGTQVTVSS	high polyreactivity
QVQLVESGGGLVQAGGSLRLSCAASGLTFYPYAMGWYRQAPGKERELVAAITRSGTSTFYADSVKGRFTISRDNAKNTVYLQMNSLKPEETAVYYCAKGYFFVGTDWESYYWGQGTQVTVSS	low polyreactivity
QVQLVESGGGLVQAGGSLRLSCAASGSIFYYYAMGWYRQAPGKERELVAAISWCGGSTYYADSVKGRFTISRDNAKNTVYLQMNSLKPEDTAVYYCAAQRRYGDDYWGQGTQVTVSS	high polyreactivity
HVQLEESGGGLVQAGGSLRLSCAASGFTFNRYAMGWYRQAPGKERELVAAISSGGRTYYADSVKGRFTISRDNAKNTVYLQMNRLKPDDTAVYYCAADWSLYSHEFDYWGQGTQVTVSS	high polyreactivity
QVQLVESVGGLVQAGGSLRLSCAASGSIFWFYAMGWYRQAPGKVRELVAAITSTGGTYYADSVKGRFTISRDNAKNTVYLQMNSLKPEDTSVYYCAADRFGVQGAYLYDYWGQGTQVTVSS	low polyreactivity
